Legend:
[1] = test system: LPS induced mouse proteinuria model; assay: LPS induced mouse proteinuria model, protein in urine (prevention and reversal by dynamin gene delivery); assay type: in vivo; conditions: 2xLPS
Method: Next, it was examined whether gene transfer of dynR725A and dynL356Q, G358V was able to protect from LPS induced changes of podocyte FP and thus proteinuria (FIGS. 6A-B); (Table 2B). […] Whereas the application of wildtype dynamin was unable to protect from LPS induced podocyte FP effacement (data not shown) and proteinuria (0.63 mg/ml after 24 hours, p<0.05 and 1.18 mg/ml after 48 hours, p<0.04); table 2B, the co-administration of R725A together with LPS completely abolished the development of proteinuria after 24 hours (0.20 mg/ml). Podocyte FPs remained normal at this timepoint (FIG. 6B). The decline of R725A expression in podocytes was then associated with the development of proteinuria (1.25 mg/ml, 48 h). At this time point, there was noticeable podocyte FP effacement. The application of the cathepsin L resistant dynamin mutant L356Q, G358V together with LPS conferred a partial protection from proteinuria (0.47 mg/ml, P<0.05). This protection was associated with normal appearing podocyte FP (FIG. 6C). Although this protection was not as strong as the one provided by dynR725A, it was prolonged and was still present even after the second dose of LPS ([…], P<0.04). This observation argues that lower expression levels of dynL356Q, G358V are required to protect from LPS induced FP effacement but the presence of dynR725A has the most powerful protection.
Another set of experiments was carried out to study whether dynR725A and dynL356Q, G358V are also useful once there is already established podocyte damage and proteinuria (reversal experiments), (FIGS. 6C, D); (Table 2C). First LPS was injected in mice at 0 and 24 hours and the course of urinary protein loss was documented. On the peak phase of proteinuria at 48 hours after the first LPS injection, either delivery solution (control), dynR725A or dynL356Q, G358V dynamin mutants were transferred and the morphology of podocyte FP was analyzed and the degree of proteinuria was determined 10 hours later when there was strong expression of the transferred gene in podocytes. […] A dramatic reformation of podocyte FPs was also observed (FIG. 6C). The same observation was true for L356Q, G358V (FIG. 6D) which was able to reduce proteinuria from 1.20 mg/ml to 0.71 mg/ml). From the in vitro data it was determined that R725A starts to self assemble into higher order structures in the LPS setting which render dynamin assembly domain protected from cathepsin L cleavage. […] In addition, dominant activating dynR725A proves useful because despite causing podocyte damage in wildtype mice, it can resist cathepsin L cleavage by self assembly in the LPS setting and have strong activity by impairment in its GTP hydrolysis.
If dynamin is a target of CatL, then dynL356Q and dynR725A, which are resistant to CatL cleavage, might protect kidneys from LPS. In control mice, two injections of LPS led to FP effacement (FIG. 21C) and a large increase in proteinuria (FIG. 21E, Con).
Next it was examined whether dynL356Q and dynR725A can reverse already established proteinuria. LPS was injected into mice at 0 and 24 hours. At the peak of proteinuria at 48 hours, mice were injected with dynWT, dynL356Q, or dynR725A, and the degree of proteinuria was analyzed 12 hours post injection. […] The rescue could be achieved with both podocin and CMV-driven protein expression.
All animal studies were approved by the MGH Subcommittee for Research Animal Care. C57BL6 mice were obtained from Jackson Laboratory (Bar Harbor, Me.). CatL−/− mice are in a pure C57BL6 background (Nakagawa et al., Science 280, 450-453 (1998)). LPS induced mouse proteinuria model was utilized as previously described (Reiser et al., J Clin Invest 113, 1390-1397 (2004)). Rat PAN nephrosis model was induced by a single intravenous injection of PAN (180 mg/kg body wt; Sigma-Aldrich, St. Louis, Mo.) (Kim et al., Am J Physiol Renal Physiol 286, F922-935 (2004)). […]

mice = assay: Protein in urine after in vivo gene delivery of dynamin mutants into healthy mice (Bradford); set-up: species or system mouse; conditions: Table 5 Basic Phenotype, podocin-driven vectors
Method: Next, the level of urinary protein loss following gene delivery of dynamin mutants was examined (Table 2). […] The expression of K44A was associated with severe proteinuria (1.18 mg/ml) at peak gene expression time of 10 hours post injection. The reduction in gene expression was paralleled by a reduction in proteinuria (0.77 mg/ml). Gene transfer of dynR725A caused an increase in proteinuria (0.58 mg/ml). Although this was not a significant increase, it is probable that it is a consequence of the partial podocyte FP effacement seen after gene transfer of dynR725A, and due to increase in the stress fibers formation observed in cultured podocytes.
To explore whether functional dynamin is required for the maintenance of FP morphology in healthy kidneys, it was examined whether expression of dominant negative dynK44A disrupts podocyte function. […] In contrast, podocin driven expression of dynK44A, the dynamin mutant that cannot bind GTP, caused FP effacement (FIG. 21B) and proteinuria (1.1±0.26 mg/ml) at the peak of gene expression […] after gene delivery (FIGS. 21D and 25C). […] In other words, tight regulation of the life-time of the GTP-bound form of dynamin appears to be required for normal FP morphology and ultrafiltration.
CatL plasmids encoding short and long CatL (Goulet et al., Biol Chem 387, 1285-1293 (2004)), Dyn1 plasmids (pcDNA-driven) or p2.5 Podocin-driven (Moeller et al., Genesis 35, 39-42 (2003)) were introduced into mice (n>10, each construct) using the TransIT in vivo gene delivery system according to the manufacturer's instruction (Mirus Bio Corporation, Madison, Wis.). 10 and 24 h after gene delivery, proteinuria was assessed by Multistix 8 SG strips (Bayer Corporation, Elkhart, Ind.), and Bradford protein assay (Sigma, Saint Louis, Mo.). From the same urines the protein creatinine ratio was determined with Albuwell M and Creatinine Companion protein creatinine ELISA kits (Exocell Inc., Philadelphia, Pa.).

Row | Molecule | Protein in the urine ([1]; Table 5 Prevention, t = 0) [mg/mL] | Protein in the urine ([1]; Table 5 Prevention, t = 24 h) | Protein in the urine ([1]; Table 5 Prevention, t = 48 h) | Protein in the urine ([1]; Table 5 Reversal, t = 0) [mg/mL] | Protein in the urine ([1]; Table 5 Reversal, t = 48 h) [mg/mL] | Protein in the urine ([1]; Table 5 Reversal, t = 58 h) | Protein in the urine (mice; t = 0) [mg/mL] | Protein in the urine (mice; t = 14 h) | Protein in the urine (mice; t = 24 h)
1 | WT (CMV): CMV promoter-driven wild type dyn1 vector, gene delivery | 0.28 ± 0.07 | 0.63 ± 0.12 (1.3.2 × 10^−3) mg/ml | 1.18 ± 0.23 (7.6 × 10^−5) mg/ml | 0.30 ± 0.11 | 0.17 ± 0.20 | 1.10 ± 0.18 mg/mL | – | – | –
2 | R725A (CMV): CMV promoter-driven dynR725A vector, gene delivery (protein, UniProt Q05193 1-864, looked up, variant R725A, expressed from CMV vector, CMV promoter-driven dynR725A vector, gene delivery) Dynamin-1: MGNRGMEDLIPLVNRLQDAFSAIGQNADLDLPQIAVVGGQSAGKSSVLENFVGRDFLPRGSGIVTRRPLVLQLVNATTEYAEFLHCKGKKFTDFEEVRLEIEAETDRVTGTNKGISPVPINLRVYSPHVLNLTLVDLPGMTKVPVGDQPPDIEFQIRDMLMQFVTKENCLILAVSPANSDLANSDALKVAKEVDPQGQRTIGVITKLDLMDEGTDARDVLENKLLPLRRGYIGVVNRSQKDIDGKKDITAALAAERKFFLSHPSYRHLADRMGTPYLQKVLNQQLTNHIRDTLPGLRNKLQSQLLSIEKEVEEYKNFRPDDPARKTKALLQMVQQFAVDFEKRIEGSGDQIDTYELSGGARINRIFHERFPFELVKMEFDEKELRREISYAIKNIHGIRTGLFTPDMAFETIVKKQVKKIREPCLKCVDMVISELISTVRQCTKKLQQYPRLREEMERIVTTHIREREGRTKEQVMLLIDIELAYMNTNHEDFIGFANAQQRSNQMNKKKTSGNQDEILVIRKGWLTINNIGIMKGGSKEYWFVLTAENLSWYKDDEEKEKKYMLSVDNLKLRDVEKGFMSSKHIFALFNTEQRNVYKDYRQLELACETQEEVDSWKASFLRAGVYPERVGDKEKASETEENGSDSFMHSMDPQLERQVETIRNLVDSYMAIVNKTVRDLMPKTIMHLMINNTKEFIFSELLANLYSCGDQNTLMEESAEQAQRADEMLRMYHALKEALSIIGDINTTTVSTPMPPPVDDSWLQVQSVPAGRRSPTSSPTPQRRAPAVPPARPGSRGPAPGPPPAGSALGGAPPVPSRPGASPDPFGPPPQVPSRPNRAPPGVPSRSGQASPSRPESPRPPFDL | 0.17 ± 0.08 | 0.20 ± 0.05 mg/mL | 1.25 ± 0.29 (5.0 × 10^−6) mg/ml | 0.28 ± 0.10 | 1.15 ± 0.17 | 0.38 ± 0.23 (1.8 × 10^−3) mg/ml | – | – | –
3 | WT (podo): podocin promoter-driven wild type dyn1 vector, gene delivery (protein, UniProt Q05193 1-864, looked up, podocin promoter vector, podocin promoter-driven wild type dyn1 vector, gene delivery) Dynamin-1: MGNRGMEDLIPLVNRLQDAFSAIGQNADLDLPQIAVVGGQSAGKSSVLENFVGRDFLPRGSGIVTRRPLVLQLVNATTEYAEFLHCKGKKFTDFEEVRLEIEAETDRVTGTNKGISPVPINLRVYSPHVLNLTLVDLPGMTKVPVGDQPPDIEFQIRDMLMQFVTKENCLILAVSPANSDLANSDALKVAKEVDPQGQRTIGVITKLDLMDEGTDARDVLENKLLPLRRGYIGVVNRSQKDIDGKKDITAALAAERKFFLSHPSYRHLADRMGTPYLQKVLNQQLTNHIRDTLPGLRNKLQSQLLSIEKEVEEYKNFRPDDPARKTKALLQMVQQFAVDFEKRIEGSGDQIDTYELSGGARINRIFHERFPFELVKMEFDEKELRREISYAIKNIHGIRTGLFTPDMAFETIVKKQVKKIREPCLKCVDMVISELISTVRQCTKKLQQYPRLREEMERIVTTHIREREGRTKEQVMLLIDIELAYMNTNHEDFIGFANAQQRSNQMNKKKTSGNQDEILVIRKGWLTINNIGIMKGGSKEYWFVLTAENLSWYKDDEEKEKKYMLSVDNLKLRDVEKGFMSSKHIFALFNTEQRNVYKDYRQLELACETQEEVDSWKASFLRAGVYPERVGDKEKASETEENGSDSFMHSMDPQLERQVETIRNLVDSYMAIVNKTVRDLMPKTIMHLMINNTKEFIFSELLANLYSCGDQNTLMEESAEQAQRRDEMLRMYHALKEALSIIGDINTTTVSTPMPPPVDDSWLQVQSVPAGRRSPTSSPTPQRRAPAVPPARPGSRGPAPGPPPAGSALGGAPPVPSRPGASPDPFGPPPQVPSRPNRAPPGVPSRSGQASPSRPESPRPPFDL | – | – | – | – | – | – | 0.28 ± 0.06 | 0.54 ± 0.13 (4.2 × 10^−3) mg/ml | 0.46 ± 0.16 (4.6 × 10^−2) mg/ml
4 | K44A (podo): podocin promoter-driven dynK44A vector, gene delivery (protein, UniProt Q05193 1-864, looked up, variant K44A, podocin promoter vector, podocin promoter-driven dynK44A vector, gene delivery) Dynamin-1: MGNRGMEDLIPLVNRLQDAFSAIGQNADLDLPQIAVVGGQSAGASSVLENFVGRDFLPRGSGIVTRRPLVLQLVNATTEYAEFLHCKGKKFTDFEEVRLEIEAETDRVTGTNKGISPVPINLRVYSPHVLNLTLVDLPGMTKVPVGDQPPDIEFQIRDMLMQFVTKENCLILAVSPANSDLANSDALKVAKEVDPQGQRTIGVITKLDLMDEGTDARDVLENKLLPLRRGYIGVVNRSQKDIDGKKDITAALAAERKFFLSHPSYRHLADRMGTPYLQKVLNQQLTNHIRDTLPGLRNKLQSQLLSIEKEVEEYKNFRPDDPARKTKALLQMVQQFAVDFEKRIEGSGDQIDTYELSGGARINRIFHERFPFELVKMEFDEKELRREISYAIKNIHGIRTGLFTPDMAFETIVKKQVKKIREPCLKCVDMVISELISTVRQCTKKLQQYPRLREEMERIVTTHIREREGRTKEQVMLLIDIELAYMNTNHEDFIGFANAQQRSNQMNKKKTSGNQDEILVIRKGWLTINNIGIMKGGSKEYWFVLTAENLSWYKDDEEKEKKYMLSVDNLKLRDVEKGFMSSKHIFALFNTEQRNVYKDYRQLELACETQEEVDSWKASFLRAGVYPERVGDKEKASETEENGSDSFMHSMDPQLERQVETIRNLVDSYMAIVNKTVRDLMPKTIMHLMINNTKEFIFSELLANLYSCGDQNTLMEESAEQAQRRDEMLRMYHALKEALSIIGDINTTTVSTPMPPPVDDSWLQVQSVPAGRRSPTSSPTPQRRAPAVPPARPGSRGPAPGPPPAGSALGGAPPVPSRPGASPDPFGPPPQVPSRPNRAPPGVPSRSGQASPSRPESPRPPFDL | – | – | – | – | – | – | 0.24 ± 0.08 | 1.09 ± 0.27 (3.0 × 10^−5) mg/ml | 0.42 ± 0.16 (5.2 × 10^−3) mg/ml

— patent US9144594B2, “Cathepsin L mediated diseases and associated methods and products” (University of Miami, priority 2005, dated 2015)
